Reference: US20150037348A1

Columns and labels:
[1] = biological target: recombinant rhesus IL-12 (rhesus monkey) (UniProt P48091); assay: cell-based or functional assay
[2] = biological target: cynomolgus IL-12 (PBMC supernatant) (cynomolgus monkey); assay: cell-based or functional assay
[3] = biological target: recombinant human IL-12 (rhIL-12) (human) (UniProt P29459); assay: cell-based or functional assay
[4] = biological target: baboon IL-12 (PBMC supernatant) (baboon); assay: cell-based or functional assay
[5] = biological target: recombinant murine IL-12 (mouse) (UniProt P43431); assay: cell-based or functional assay
Sequence of recombinant murine IL-12 (mouse) (P43431 23-215, chain 1 of 2): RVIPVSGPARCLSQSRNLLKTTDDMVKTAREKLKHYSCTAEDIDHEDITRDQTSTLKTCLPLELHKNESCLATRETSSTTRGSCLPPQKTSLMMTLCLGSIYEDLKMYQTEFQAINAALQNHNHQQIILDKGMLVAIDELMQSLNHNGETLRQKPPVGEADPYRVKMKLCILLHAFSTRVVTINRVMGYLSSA
Sequence of recombinant murine IL-12 (mouse) (P43432 23-335, chain 2 of 2, further chain): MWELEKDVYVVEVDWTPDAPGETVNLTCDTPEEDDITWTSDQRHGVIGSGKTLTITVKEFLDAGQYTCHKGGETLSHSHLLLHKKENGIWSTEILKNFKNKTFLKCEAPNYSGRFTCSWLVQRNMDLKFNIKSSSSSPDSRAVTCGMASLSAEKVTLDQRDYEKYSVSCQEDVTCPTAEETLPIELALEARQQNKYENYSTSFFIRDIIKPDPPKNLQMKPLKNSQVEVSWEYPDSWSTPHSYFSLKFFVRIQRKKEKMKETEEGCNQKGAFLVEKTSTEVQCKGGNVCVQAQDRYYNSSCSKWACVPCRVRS

[6] = biological target: recombinant murine IL-12 (mouse) (UniProt P43431); assay: biomolecular interaction assay, C17.15 captured via goat anti-rat IgG, murine IL-12 in solution
[7] = biological target: recombinant murine IL-12 (mouse) (UniProt P43431); assay: receptor binding assay, 125I-murine IL-12 on 2D6 cells

Sequence of recombinant human IL-12 (rhIL-12) (human) (P29459 23-219, chain 1 of 2): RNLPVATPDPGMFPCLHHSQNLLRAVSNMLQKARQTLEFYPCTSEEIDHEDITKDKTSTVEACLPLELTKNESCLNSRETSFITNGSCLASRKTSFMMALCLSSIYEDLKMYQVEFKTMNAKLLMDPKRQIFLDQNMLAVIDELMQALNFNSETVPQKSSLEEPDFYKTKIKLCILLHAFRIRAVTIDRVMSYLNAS
Sequence of recombinant human IL-12 (rhIL-12) (human) (P29460 23-328, chain 2 of 2, further chain): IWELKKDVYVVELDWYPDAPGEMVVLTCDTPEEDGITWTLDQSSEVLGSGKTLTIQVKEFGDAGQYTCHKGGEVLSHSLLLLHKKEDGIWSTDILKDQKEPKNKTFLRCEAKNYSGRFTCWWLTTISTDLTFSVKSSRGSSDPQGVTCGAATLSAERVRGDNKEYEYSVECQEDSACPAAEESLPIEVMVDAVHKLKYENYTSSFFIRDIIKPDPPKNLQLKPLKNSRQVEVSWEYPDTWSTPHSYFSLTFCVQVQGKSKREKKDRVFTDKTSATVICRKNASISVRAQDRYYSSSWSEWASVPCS
Sequence of recombinant rhesus IL-12 (rhesus monkey) (P48091 23-219, chain 1 of 2): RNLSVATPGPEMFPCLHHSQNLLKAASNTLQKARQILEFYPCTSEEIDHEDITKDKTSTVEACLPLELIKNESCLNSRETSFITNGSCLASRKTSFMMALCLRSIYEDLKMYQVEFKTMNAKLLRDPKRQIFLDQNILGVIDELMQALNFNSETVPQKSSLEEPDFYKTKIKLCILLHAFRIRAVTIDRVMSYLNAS
Sequence of recombinant rhesus IL-12 (rhesus monkey) (P48095 23-328, chain 2 of 2, further chain): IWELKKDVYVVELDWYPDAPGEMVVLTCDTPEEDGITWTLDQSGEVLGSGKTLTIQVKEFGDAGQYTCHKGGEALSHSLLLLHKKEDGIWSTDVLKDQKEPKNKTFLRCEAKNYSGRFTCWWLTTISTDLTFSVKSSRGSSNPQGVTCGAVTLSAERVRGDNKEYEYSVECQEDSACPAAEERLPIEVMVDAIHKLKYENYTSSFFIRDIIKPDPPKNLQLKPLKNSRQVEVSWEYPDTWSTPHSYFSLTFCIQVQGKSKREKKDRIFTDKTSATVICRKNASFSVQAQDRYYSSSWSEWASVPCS

Row | IC50 (M), bioassay, Rhesus IL-12 Purified [1] [M] | IC50 (M), bioassay, Cyno IL-12 PBMC sup [2] [M] | IC50 (M), bioassay, Human IL-12 Purified [3] [M] | IC50 (M), bioassay, Baboon IL-12 PBMC sup [4] [M] | IC50 (M), bioassay, Mouse IL-12 Purified [5] [M] | PHA blast IC50 [5] [nM] | Kd [6] [nM] | koff [6] [s⁻¹] | kon [6] [M⁻¹ s⁻¹] | IC50 [7] [nM] | Substance
1 | 1e-10 | 1.2e-10 | 5e-11 | 2e-10 |  |  |  |  |  |  | C8.6.2 (antibody)
2 |  |  |  |  | 3e-11 | 0.014 | 0.48 | 0.000184 | 380000 | 0.15 | C17.15 (antibody)
